Results: paper PMC2875008
Like-named read-outs stand apart in the source and are kept apart here.

Key:
[1] = molecular target: T1, hRad52 1-212 (Homo sapiens, UniProt P43351 1-212); experiment: FRET titration
T1 sequence: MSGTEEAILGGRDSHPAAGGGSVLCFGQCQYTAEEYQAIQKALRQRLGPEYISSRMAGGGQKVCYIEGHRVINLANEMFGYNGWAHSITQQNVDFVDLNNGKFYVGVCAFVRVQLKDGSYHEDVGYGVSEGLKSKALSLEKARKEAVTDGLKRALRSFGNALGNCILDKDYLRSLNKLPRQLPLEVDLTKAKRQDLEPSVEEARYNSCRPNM

[2] = molecular target: T2, hRad52 (Homo sapiens, UniProt P43351 1-418); experiment: FRET titration
T2 sequence: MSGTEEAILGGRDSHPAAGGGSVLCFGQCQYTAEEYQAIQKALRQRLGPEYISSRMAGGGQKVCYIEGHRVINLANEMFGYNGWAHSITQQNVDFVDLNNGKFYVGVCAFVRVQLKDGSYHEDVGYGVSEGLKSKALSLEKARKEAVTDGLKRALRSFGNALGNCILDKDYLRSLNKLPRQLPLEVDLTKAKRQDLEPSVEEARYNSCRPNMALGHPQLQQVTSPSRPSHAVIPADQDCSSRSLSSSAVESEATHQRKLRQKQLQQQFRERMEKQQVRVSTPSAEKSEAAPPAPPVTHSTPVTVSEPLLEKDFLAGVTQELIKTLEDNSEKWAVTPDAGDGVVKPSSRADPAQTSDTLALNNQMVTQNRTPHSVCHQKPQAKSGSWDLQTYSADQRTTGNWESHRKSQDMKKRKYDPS

[3] = molecular target: T3, hRPA (Homo sapiens, UniProt P27694;P15927;P35244 1-616;1-270;1-121); experiment: FRET titration
[4] = molecular target: T1, hRad52 1-212; experiment: FRET titration; remark: listed apart in the source
[5] = molecular target: T2, hRad52; experiment: EMSA
[6] = molecular target: T3, hRPA; experiment: FRET titration; remark: listed apart in the source
[7] = molecular target: T2, hRad52; experiment: FRET titration; remark: listed apart in the source
[8] = molecular target: T2, hRad52; experiment: FRET titration; remark: listed apart in the source

T3 sequence (P27694 whole entry, chain 1 of 3): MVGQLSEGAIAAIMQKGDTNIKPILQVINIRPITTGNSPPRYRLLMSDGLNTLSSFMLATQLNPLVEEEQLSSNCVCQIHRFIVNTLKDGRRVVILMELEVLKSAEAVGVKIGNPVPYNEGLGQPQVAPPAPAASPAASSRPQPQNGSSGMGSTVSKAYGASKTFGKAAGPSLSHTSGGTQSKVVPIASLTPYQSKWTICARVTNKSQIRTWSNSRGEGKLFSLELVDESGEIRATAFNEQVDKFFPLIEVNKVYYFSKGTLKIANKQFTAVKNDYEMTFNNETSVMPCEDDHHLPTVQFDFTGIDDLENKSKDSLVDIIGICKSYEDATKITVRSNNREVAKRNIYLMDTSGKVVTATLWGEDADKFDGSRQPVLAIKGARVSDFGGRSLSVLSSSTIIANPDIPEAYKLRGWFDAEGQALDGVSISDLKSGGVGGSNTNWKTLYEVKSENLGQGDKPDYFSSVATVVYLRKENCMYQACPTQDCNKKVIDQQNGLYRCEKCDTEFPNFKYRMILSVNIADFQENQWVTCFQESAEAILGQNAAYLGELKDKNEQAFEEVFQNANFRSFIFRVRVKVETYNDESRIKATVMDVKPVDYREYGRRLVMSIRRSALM
T3 sequence (P15927 whole entry, chain 2 of 3): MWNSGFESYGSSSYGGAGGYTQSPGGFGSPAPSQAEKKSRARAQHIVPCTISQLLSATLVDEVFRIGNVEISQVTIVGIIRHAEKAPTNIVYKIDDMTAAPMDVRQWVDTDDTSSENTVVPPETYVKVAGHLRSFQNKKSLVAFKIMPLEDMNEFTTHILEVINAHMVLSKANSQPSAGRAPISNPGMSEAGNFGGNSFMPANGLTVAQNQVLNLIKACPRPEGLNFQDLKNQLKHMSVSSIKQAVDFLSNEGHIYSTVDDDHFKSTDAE
T3 sequence (P35244 whole entry, chain 3 of 3): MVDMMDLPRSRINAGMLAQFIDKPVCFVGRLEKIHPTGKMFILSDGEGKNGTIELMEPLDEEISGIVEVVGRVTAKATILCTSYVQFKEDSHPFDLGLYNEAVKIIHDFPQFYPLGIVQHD

B1: poly(dT)-60 (ssDNA)
DNA: TTTTTTTTTTTTTTTTTTTTTTTTTTTTTTTTTTTTTTTTTTTTTTTTTTTTTTTTTTTT
binding result [1]: binds
binding result [2]: binds
binding result [3]: binds

TTTTTTTTTTTTTTTTTTTTTTTTTTTTTT (ssDNA) [poly(dT)-30]
binding result [4]: binds
binding result [5]: binds
binding result [6]: binds

TTTTTTTTTTTTTTTTTTTTTTTTTTTTTTTTTTTTTTT (ssDNA) [poly(dT)-39]
binding result [7]: binds

TTTTTTTTTTTTTTTTTTTTTTTTTTTTTTTTTTTTTTTTTTTTTTTTTT (ssDNA) [poly(dT)-50]
binding result [7]: binds

TTTTTTTTTTTTTTTTTTTTTT (ssDNA) [poly(dT)-22]
binding result [8]: binds
